The text below walks through data of US20200270325A1 (Merck Sharp & Dohme, published 2020).

Numbered stars: 1 amine (or outer) side, 2 acyl side, 3 side chain; on linkers, the order of the positions; unused ones are H or OH. Square brackets hold non-standard residues; d marks the D form. Side chains are listed from the residue outwards. Ends that are not written are not given here. * marks the point of attachment. Phe(4-CH2NH2) = NCc1ccc(C[C@H](N)C(=O)O)cc1; C18 diacid = O=C(O)CCCCCCCCCCCCCCCCC(=O)*; αMeW = C[C@](N)(Cc1c[nH]c2ccccc12)C(=O)O; C16 diacid = O=C(O)CCCCCCCCCCCCCCC(=O)*; γGlu = O=C(O)[C@H](CCC(=O)[*:2])N[*:1]; Met(O2) = CS(=O)(=O)CC[C@H](N)C(=O)O; αMeD = C[C@](N)(CC(=O)O)C(=O)O; AEEA = NCCOCCOCC(=O)O; Aib = CC(C)(N)C(=O)O

Test [1] addresses human Glucagon receptor (GCGR) (human, UniProt P47871 26-477). Description: cell-based or functional assay.
Test [2] has as its target human GLP-1 receptor (GLP1R) (human, UniProt P43220 24-463). Description: cell-based or functional assay.

Sequence of human Glucagon receptor (GCGR) (P47871 26-477): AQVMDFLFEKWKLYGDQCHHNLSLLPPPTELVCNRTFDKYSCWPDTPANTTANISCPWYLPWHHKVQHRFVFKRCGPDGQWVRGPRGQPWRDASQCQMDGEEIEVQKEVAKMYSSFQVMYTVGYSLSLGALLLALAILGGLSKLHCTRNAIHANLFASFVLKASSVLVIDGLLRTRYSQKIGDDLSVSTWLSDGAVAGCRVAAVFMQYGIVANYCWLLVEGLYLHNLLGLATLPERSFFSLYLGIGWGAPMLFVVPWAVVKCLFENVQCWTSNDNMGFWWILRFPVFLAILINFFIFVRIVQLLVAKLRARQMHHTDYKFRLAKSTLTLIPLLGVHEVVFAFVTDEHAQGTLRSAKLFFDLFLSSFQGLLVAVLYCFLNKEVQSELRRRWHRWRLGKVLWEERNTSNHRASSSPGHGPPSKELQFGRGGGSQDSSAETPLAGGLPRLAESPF

B1: TP604 (peptide)
peptide: H[Aib]QGTFTSDYSKYLDARAAQDFVQWL[Met(O2)][Phe(4-CH2NH2)]([AEEA-AEEA-γGlu-C18 diacid])T-NH2
modifications: N-terminus assumed
SMILES: CC(C)C[C@H](NC(=O)[C@H](Cc1ccc(O)cc1)NC(=O)[C@H](CCCCN)NC(=O)[C@H](CO)NC(=O)[C@H](Cc1ccc(O)cc1)NC(=O)[C@H](CC(=O)O)NC(=O)[C@H](CO)NC(=O)[C@@H](NC(=O)[C@H](Cc1ccccc1)NC(=O)[C@@H](NC(=O)CNC(=O)[C@H](CCC(N)=O)NC(=O)C(C)(C)NC(=O)[C@@H](N)Cc1c[nH]cn1)[C@@H](C)O)[C@@H](C)O)C(=O)N[C@@H](CC(=O)O)C(=O)N[C@@H](C)C(=O)N[C@@H](CCCNC(=N)N)C(=O)N[C@@H](C)C(=O)N[C@@H](C)C(=O)N[C@@H](CCC(N)=O)C(=O)N[C@@H](CC(=O)O)C(=O)N[C@@H](Cc1ccccc1)C(=O)N[C@H](C(=O)N[C@@H](CCC(N)=O)C(=O)N[C@@H](Cc1c[nH]c2ccccc12)C(=O)N[C@@H](CC(C)C)C(=O)N[C@@H](CCS(C)(=O)=O)C(=O)N[C@@H](Cc1ccc(CNC(=O)COCCOCCNC(=O)COCCOCCNC(=O)CC[C@H](NC(=O)CCCCCCCCCCCCCCCCC(=O)O)C(=O)O)cc1)C(=O)N[C@H](C(N)=O)[C@@H](C)O)C(C)C
In the case of B1, in test [1], the “GCGR EC50 human” value is 1.09 nM. For the same molecule, the “GLP1R EC50 human” value in test [2] amounted to 0.47 nM.

B2: TP630 (peptide)
peptide: H[Aib]QGTFTSDYSKYLDARAAK([AEEA-AEEA-γGlu-C16 diacid])DFVQ[αMeW]L[Met(O2)]DT-NH2
modifications: N-terminus assumed
SMILES: CC(C)C[C@H](NC(=O)[C@H](Cc1ccc(O)cc1)NC(=O)[C@H](CCCCN)NC(=O)[C@H](CO)NC(=O)[C@H](Cc1ccc(O)cc1)NC(=O)[C@H](CC(=O)O)NC(=O)[C@H](CO)NC(=O)[C@@H](NC(=O)[C@H](Cc1ccccc1)NC(=O)[C@@H](NC(=O)CNC(=O)[C@H](CCC(N)=O)NC(=O)C(C)(C)NC(=O)[C@@H](N)Cc1c[nH]cn1)[C@@H](C)O)[C@@H](C)O)C(=O)N[C@@H](CC(=O)O)C(=O)N[C@@H](C)C(=O)N[C@@H](CCCNC(=N)N)C(=O)N[C@@H](C)C(=O)N[C@@H](C)C(=O)N[C@@H](CCCCNC(=O)COCCOCCNC(=O)COCCOCCNC(=O)CC[C@H](NC(=O)CCCCCCCCCCCCCCC(=O)O)C(=O)O)C(=O)N[C@@H](CC(=O)O)C(=O)N[C@@H](Cc1ccccc1)C(=O)N[C@H](C(=O)N[C@@H](CCC(N)=O)C(=O)N[C@@](C)(Cc1c[nH]c2ccccc12)C(=O)N[C@@H](CC(C)C)C(=O)N[C@@H](CCS(C)(=O)=O)C(=O)N[C@@H](CC(=O)O)C(=O)N[C@H](C(N)=O)[C@@H](C)O)C(C)C
With B2, in test [1], the “GCGR EC50 human” value is 0.89 nM. Moreover, in test [2], the “GLP1R EC50 human” value was found to be 0.29 nM.

B3: TP598 (peptide)
peptide: H[Aib]QGTFTSDYSKYLDAKAAK([AEEA-AEEA-γGlu-C18 diacid])DFVQWL[Met(O2)]DT-NH2
modifications: N-terminus assumed
SMILES: CC(C)C[C@H](NC(=O)[C@H](Cc1ccc(O)cc1)NC(=O)[C@H](CCCCN)NC(=O)[C@H](CO)NC(=O)[C@H](Cc1ccc(O)cc1)NC(=O)[C@H](CC(=O)O)NC(=O)[C@H](CO)NC(=O)[C@@H](NC(=O)[C@H](Cc1ccccc1)NC(=O)[C@@H](NC(=O)CNC(=O)[C@H](CCC(N)=O)NC(=O)C(C)(C)NC(=O)[C@@H](N)Cc1c[nH]cn1)[C@@H](C)O)[C@@H](C)O)C(=O)N[C@@H](CC(=O)O)C(=O)N[C@@H](C)C(=O)N[C@@H](CCCCN)C(=O)N[C@@H](C)C(=O)N[C@@H](C)C(=O)N[C@@H](CCCCNC(=O)COCCOCCNC(=O)COCCOCCNC(=O)CC[C@H](NC(=O)CCCCCCCCCCCCCCCCC(=O)O)C(=O)O)C(=O)N[C@@H](CC(=O)O)C(=O)N[C@@H](Cc1ccccc1)C(=O)N[C@H](C(=O)N[C@@H](CCC(N)=O)C(=O)N[C@@H](Cc1c[nH]c2ccccc12)C(=O)N[C@@H](CC(C)C)C(=O)N[C@@H](CCS(C)(=O)=O)C(=O)N[C@@H](CC(=O)O)C(=O)N[C@H](C(N)=O)[C@@H](C)O)C(C)C
Take B3: the “GCGR EC50 human” value in test [1] is 1.14 nM. For the same molecule, the “GLP1R EC50 human” value in test [2] amounted to 0.5 nM.

B4: TP628 (peptide)
peptide: H[Aib]QGTFTSDYSKYLDARAAK([AEEA-γGlu-C18 diacid])DFVQWL[Met(O2)][αMeD]T-NH2
modifications: N-terminus assumed
SMILES: CC(C)C[C@H](NC(=O)[C@H](Cc1ccc(O)cc1)NC(=O)[C@H](CCCCN)NC(=O)[C@H](CO)NC(=O)[C@H](Cc1ccc(O)cc1)NC(=O)[C@H](CC(=O)O)NC(=O)[C@H](CO)NC(=O)[C@@H](NC(=O)[C@H](Cc1ccccc1)NC(=O)[C@@H](NC(=O)CNC(=O)[C@H](CCC(N)=O)NC(=O)C(C)(C)NC(=O)[C@@H](N)Cc1c[nH]cn1)[C@@H](C)O)[C@@H](C)O)C(=O)N[C@@H](CC(=O)O)C(=O)N[C@@H](C)C(=O)N[C@@H](CCCNC(=N)N)C(=O)N[C@@H](C)C(=O)N[C@@H](C)C(=O)N[C@@H](CCCCNC(=O)COCCOCCNC(=O)CC[C@H](NC(=O)CCCCCCCCCCCCCCCCC(=O)O)C(=O)O)C(=O)N[C@@H](CC(=O)O)C(=O)N[C@@H](Cc1ccccc1)C(=O)N[C@H](C(=O)N[C@@H](CCC(N)=O)C(=O)N[C@@H](Cc1c[nH]c2ccccc12)C(=O)N[C@@H](CC(C)C)C(=O)N[C@@H](CCS(C)(=O)=O)C(=O)N[C@@](C)(CC(=O)O)C(=O)N[C@H](C(N)=O)[C@@H](C)O)C(C)C
Take B4: in test [1], the “GCGR EC50 human” value came to 0.86 nM. Further, the “GLP1R EC50 human” value in test [2] was 1.39 nM.

B5: TP609 (peptide)
peptide: H[Aib]QGTFTSDYSKYLDARAAQ[Phe(4-CH2NH2)]([AEEA-AEEA-γGlu-C18 diacid])FVQWLL[αMeD]T-NH2
modifications: N-terminus assumed
SMILES: CC(C)C[C@H](NC(=O)[C@H](Cc1ccc(O)cc1)NC(=O)[C@H](CCCCN)NC(=O)[C@H](CO)NC(=O)[C@H](Cc1ccc(O)cc1)NC(=O)[C@H](CC(=O)O)NC(=O)[C@H](CO)NC(=O)[C@@H](NC(=O)[C@H](Cc1ccccc1)NC(=O)[C@@H](NC(=O)CNC(=O)[C@H](CCC(N)=O)NC(=O)C(C)(C)NC(=O)[C@@H](N)Cc1c[nH]cn1)[C@@H](C)O)[C@@H](C)O)C(=O)N[C@@H](CC(=O)O)C(=O)N[C@@H](C)C(=O)N[C@@H](CCCNC(=N)N)C(=O)N[C@@H](C)C(=O)N[C@@H](C)C(=O)N[C@@H](CCC(N)=O)C(=O)N[C@@H](Cc1ccc(CNC(=O)COCCOCCNC(=O)COCCOCCNC(=O)CC[C@H](NC(=O)CCCCCCCCCCCCCCCCC(=O)O)C(=O)O)cc1)C(=O)N[C@@H](Cc1ccccc1)C(=O)N[C@H](C(=O)N[C@@H](CCC(N)=O)C(=O)N[C@@H](Cc1c[nH]c2ccccc12)C(=O)N[C@@H](CC(C)C)C(=O)N[C@@H](CC(C)C)C(=O)N[C@@](C)(CC(=O)O)C(=O)N[C@H](C(N)=O)[C@@H](C)O)C(C)C
In the case of B5, the “GCGR EC50 human” value in test [1] is 0.36 nM. For the same molecule, the “GLP1R EC50 human” value in test [2] turned out to be 0.42 nM.

B6: TP443 (peptide)
peptide: H[Aib]QGTFTSDYSKYLDARAAQ[Phe(4-CH2NH2)]([AEEA-AEEA-γGlu-C18 diacid])FVQWLLDT-NH2
modifications: N-terminus assumed
SMILES: CC(C)C[C@H](NC(=O)[C@H](Cc1ccc(O)cc1)NC(=O)[C@H](CCCCN)NC(=O)[C@H](CO)NC(=O)[C@H](Cc1ccc(O)cc1)NC(=O)[C@H](CC(=O)O)NC(=O)[C@H](CO)NC(=O)[C@@H](NC(=O)[C@H](Cc1ccccc1)NC(=O)[C@@H](NC(=O)CNC(=O)[C@H](CCC(N)=O)NC(=O)C(C)(C)NC(=O)[C@@H](N)Cc1c[nH]cn1)[C@@H](C)O)[C@@H](C)O)C(=O)N[C@@H](CC(=O)O)C(=O)N[C@@H](C)C(=O)N[C@@H](CCCNC(=N)N)C(=O)N[C@@H](C)C(=O)N[C@@H](C)C(=O)N[C@@H](CCC(N)=O)C(=O)N[C@@H](Cc1ccc(CNC(=O)COCCOCCNC(=O)COCCOCCNC(=O)CC[C@H](NC(=O)CCCCCCCCCCCCCCCCC(=O)O)C(=O)O)cc1)C(=O)N[C@@H](Cc1ccccc1)C(=O)N[C@H](C(=O)N[C@@H](CCC(N)=O)C(=O)N[C@@H](Cc1c[nH]c2ccccc12)C(=O)N[C@@H](CC(C)C)C(=O)N[C@@H](CC(C)C)C(=O)N[C@@H](CC(=O)O)C(=O)N[C@H](C(N)=O)[C@@H](C)O)C(C)C
As to B6, in test [1], the “GCGR EC50 human” value was 0.18 nM. Further, the “GLP1R EC50 human” value in test [2] was 0.1 nM.

B7: TP597 (peptide)
peptide: H[Aib]QGTFTSDYSKLLDARAAK([AEEA-AEEA-γGlu-C18 diacid])DFVQWL[Met(O2)]DT-NH2
modifications: N-terminus assumed
SMILES: CC(C)C[C@H](NC(=O)[C@H](CC(C)C)NC(=O)[C@H](CCCCN)NC(=O)[C@H](CO)NC(=O)[C@H](Cc1ccc(O)cc1)NC(=O)[C@H](CC(=O)O)NC(=O)[C@H](CO)NC(=O)[C@@H](NC(=O)[C@H](Cc1ccccc1)NC(=O)[C@@H](NC(=O)CNC(=O)[C@H](CCC(N)=O)NC(=O)C(C)(C)NC(=O)[C@@H](N)Cc1c[nH]cn1)[C@@H](C)O)[C@@H](C)O)C(=O)N[C@@H](CC(=O)O)C(=O)N[C@@H](C)C(=O)N[C@@H](CCCNC(=N)N)C(=O)N[C@@H](C)C(=O)N[C@@H](C)C(=O)N[C@@H](CCCCNC(=O)COCCOCCNC(=O)COCCOCCNC(=O)CC[C@H](NC(=O)CCCCCCCCCCCCCCCCC(=O)O)C(=O)O)C(=O)N[C@@H](CC(=O)O)C(=O)N[C@@H](Cc1ccccc1)C(=O)N[C@H](C(=O)N[C@@H](CCC(N)=O)C(=O)N[C@@H](Cc1c[nH]c2ccccc12)C(=O)N[C@@H](CC(C)C)C(=O)N[C@@H](CCS(C)(=O)=O)C(=O)N[C@@H](CC(=O)O)C(=O)N[C@H](C(N)=O)[C@@H](C)O)C(C)C
On to B7, for which the “GCGR EC50 human” value in test [1] was found to be 0.74 nM. Further, in test [2], the “GLP1R EC50 human” value was found to be 0.61 nM.

B8: TP608 (peptide)
peptide: HXQGTFTSDYSKYLDARAAQXFVQWLXXT
modifications: Aib (U) at 2; K(PEG5-γEC18-OH) at 21; L-methionine sulphone (2) at 27; αMD (printed aMD) at 28; C-terminal amide
Turning to B8, in test [1], the “GCGR EC50 human” value was found to be 0.21 nM. Further, in test [2], the “GLP1R EC50 human” value is 0.23 nM.
